# From IntAct's records for PubMed 28642151
# B1: Serine protease HTRA3 (Homo sapiens), P83110-1 (parent)
# chain: MQARALLLAALAALALAREPPAAPCPARCDVSRCPSPRCPGGYVPDLCNCCLVCAASEGEPCGGPLDSPCGESLECVRGLCRCRWSHAVCGTDGHTYANVCALQAASRRALQLSGTPVRQLQKGACPLGLHQLSSPRYKFNFIADVVEKIAPAVVHIELFLRHPLFGRNVPLSSGSGFIMSEAGLIITNAHVVSSNSAAPGRQQLKVQLQNGDSYEATIKDIDKKSDIATIKIHPKKKLPVLLLGHSADLRPGEFVVAIGSPFALQNTVTTGIVSTAQREGRELGLRDSDMDYIQTDAIINYGNSGGPLVNLDGEVIGINTLKVTAGISFAIPSDRITRFLTEFQDKQIKDWKKRFIGIRMRTITPSLVDELKASNPDFPEVSSGIYVQEVAPNSPSQRGGIQDGDIIVKVNGRPLVDSSELQEAVLTESPLLLEVRRGNDDLLFSIAPEVVM
# B2: Serine protease HTRA3 (Homo sapiens), P83110-1 (parent)
# chain: B1 chain
# partner: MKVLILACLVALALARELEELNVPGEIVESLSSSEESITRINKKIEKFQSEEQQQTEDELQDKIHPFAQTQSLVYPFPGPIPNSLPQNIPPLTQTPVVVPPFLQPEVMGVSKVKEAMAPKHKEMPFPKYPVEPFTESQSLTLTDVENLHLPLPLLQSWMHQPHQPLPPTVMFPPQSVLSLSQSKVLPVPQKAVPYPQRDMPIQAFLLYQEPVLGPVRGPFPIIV
# Variants of: B1
# Details: with xiap_human XIAP
row,Variant,effect of a mutation on the interaction
1,R362A;E371A;Q389A,with no effect

# Variants of: B2
# Details: with casb_bovin CSN2, P02666
row,Variant,effect of a mutation on the interaction
1,R362A;E371A;Q389A,with no effect
